Data on two molecules can be found in patent WO2014161570A1.

Like-named read-outs stand apart in the source and are kept apart here.

Common to all, as to assay: ELISA, IL-17A coated on plate, relative binding (Table 6a)
On the technique in general: An ELISA detects its analyte on a solid surface through an enzyme-linked reagent.

For experiment [1], the target named is T1, Human IL-17A (human) (UniProt Q16552).
T1 sequence: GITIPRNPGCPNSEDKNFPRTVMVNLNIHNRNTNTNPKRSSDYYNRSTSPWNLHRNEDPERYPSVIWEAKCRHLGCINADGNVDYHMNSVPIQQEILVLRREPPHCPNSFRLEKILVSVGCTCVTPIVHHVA

Experiment [2] addresses Cynomolgous IL-17A (cynomolgous).
The target of experiment [3] is T1, Human IL-17A (human). This is another data set of the same source.

On to eBio64CAP17 (antibody), for which, in experiment [1], the Relative binding to human IL-17A in % is 122%. Moreover, the Relative binding to cynomolgous IL-17A in % in experiment [2] turned out to be 124%.

B1: <IL17> 9C6-2B6 (mouse clone) (antibody, V domains shown)
VH: QVQLKESGPGLVAPSQSLSITCTVSGFSLDSYGVHWVRQPPGKGLEWLVVIWSDGTTTYNSALKSRLSITKDNSKSQVFLKMNSLQTDDTAIYYCARDTHYRLYYYAMDYWGQGTSVTVSS
VL: DVVMTQTPLSLPVSLGDQASISCRSSQSLVHSNGDTYFHWYLQKPGQSPKLLIYKVSNRFSGVPDRFSGSGSGTDFTLKINRVEAEDLGVYFCSQTTHAPFTFGSGTKLEIK
On to B1, for which, in experiment [3], the Relative binding to human IL-17A in % was 127%.
